T1: recombinant human soluble endoglin (sEng; Glu26-Gly586) (human, UniProt P17813 26-586)
T1 construct: human endoglin (CD105), extracellular domain, Glu26-Gly586; The same bought protein was the probe of the array and the analyte of the BLI; also called recombinant human endoglin/CD105 protein; source: bought: R&D Systems (1097-EN), purified recombinant
T1 sequence (looked up): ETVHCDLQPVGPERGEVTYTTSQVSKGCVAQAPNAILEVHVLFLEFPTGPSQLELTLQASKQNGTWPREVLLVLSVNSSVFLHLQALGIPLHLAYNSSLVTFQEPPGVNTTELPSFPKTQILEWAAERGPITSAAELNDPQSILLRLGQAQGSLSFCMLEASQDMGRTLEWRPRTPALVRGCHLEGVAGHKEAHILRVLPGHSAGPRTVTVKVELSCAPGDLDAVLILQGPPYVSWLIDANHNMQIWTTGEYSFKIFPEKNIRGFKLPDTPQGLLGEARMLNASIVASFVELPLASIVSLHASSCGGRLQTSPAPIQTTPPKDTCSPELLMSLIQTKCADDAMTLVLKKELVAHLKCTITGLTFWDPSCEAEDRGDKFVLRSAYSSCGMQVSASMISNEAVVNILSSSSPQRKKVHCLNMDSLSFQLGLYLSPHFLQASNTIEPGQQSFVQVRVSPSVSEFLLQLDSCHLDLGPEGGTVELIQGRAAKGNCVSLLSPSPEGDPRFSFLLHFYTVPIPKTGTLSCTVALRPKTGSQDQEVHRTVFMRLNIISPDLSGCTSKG

B1: Cortactin (CTTN), transcript variant 2 (natural protein, human, UniProt Q14247-3 1-513, looked up)
chain: MWKASAGHAVSIAQDDAGADDWETDPDFVNDVSEKEQRWGAKTVQGSGHQEHINIHKLRENVFQEHQTLKEKELETGPKASHGYGGKFGVEQDRMDKSAVGHEYQSKLSKHCSQVDSVRGFGGKFGVQMDRVDQSAVGFEYQGKTEKHASQKDYSSGFGGKYGVQADRVDKSAVGFDYQGKTEKHESQRDYSKGFGGKYGIDKDKVDKSAVGFEYQGKTEKHESQKDYVKGFGGKFGVQTDRQDKCALGWDHQEKLQLHESQKDYSKGFGGKYGVQKDRMDKNASTFEDVTQVSSAYQKTVPVEAVTSKTSNIRANFENLAKEKEQEDRRKAEAERAQRMAKERQEQEEARRKLEEQARAKTQTPPVSPAPQPTEERLPSSPVYEDAASFKAELSYRGPVSGTEPEPVYSMEAADYREASSQQGLAYATEAVYESAEAPGHYPAEDSTYDEYENDLGITAVALYDYQAAGDDEISFDPDDIITNIEMIDDGWWRGVCKGRYGLFPANYVELRQ
notes: source: bought: ProtoArray human protein Microarray v5.0 (Life Technologies), individually purified and arrayed
B2: HIRA interacting protein 3 (HIRIP3) (natural protein, human, UniProt Q9BW71-1 1-556, looked up)
chain: MAREKEMQEFTRSFFRGRPDLSTLTHSIVRRRYLAHSGRSHLEPEEKQALKRLVEEELLKMQVDEAASREDKLDLTKKGKRPPTPCSDPERKRFRFNSESESGSEASSPDYFGPPAKNGVAAEVSPAKEENPRRASKAVEESSDEERQRDLPAQRGEESSEEEEKGYKGKTRKKPVVKKQAPGKASVSRKQAREESEESEAEPVQRTAKKVEGNKGTKSLKESEQESEEEILAQKKEQREEEVEEEEKEEDEEKGDWKPRTRSNGRRKSAREERSCKQKSQAKRLLGDSDSEEEQKEAASSGDDSGRDREPPVQRKSEDRTQLKGGKRLSGSSEDEEDSGKGEPTAKGSRKMARLGSTSGEESDLEREVSDSEAGGGPQGERKNRSSKKSSRKGRTRSSSSSSDGSPEAKGGKAGSGRRGEDHPAVMRLKRYIRACGAHRNYKKLLGSCCSHKERLSILRAELEALGMKGTPSLGKCRALKEQREEAAEVASLDVANIISGSGRPRRRTAWNPLGEAAPPGELYRRTLDSDEERPRPAPPDWSHMRGIISSDGESN
notes: as for B1
B3: Coiled-coil domain containing 55 (CCDC55), transcript variant 1 (natural protein, human, UniProt Q9H0G5 1-558, looked up)
chain: MAIPGRQYGLILPKKTQQLHPVLQKPSVFGNDSDDDDETSVSESLQREAAKKQAMKQTKLEIQKALAEDATVYEYDSIYDEMQKKKEENNPKLLLGKDRKPKYIHNLLKAVEIRKKEQEKRMEKKIQREREMEKGEFDDKEAFVTSAYKKKLQERAEEEEREKRAAALEACLDVTKQKDLSGFYRHLLNQAVGEEEVPKCSFREARSGIKEEKSRGFSNEVSSKNRIPQEKCILQTDVKVEENPDADSDFDAKSSADDEIEETRVNCRREKVIETPENDFKHHRSQNHSRSPSEERGHSTRHHTKGSRTSRGHEKREDQHQQKQSRDQENHYTDRDYRKERDSHRHREASHRDSHWKRHEQEDKPRARDQRERSDRVWKREKDREKYSQREQERDRQQNDQNRPSEKGEKEEKSKAKEEHMKVRKERYENNDKYRDREKREVGVQSSERNQDRKESSPNSRAKDKFLDQERSNKMRNMAKDKERNQEKPSNSESSLGAKHRLTEEGQEKGKEQERPPEAVSKFAKRNNEETVMSARDRYLARQMARVNAKTYIEKEDD
notes: human CCDC55, transcript variant 1; source: bought: ProtoArray human protein Microarray v5.0 (Life Technologies), individually purified and arrayed
B4: Family with sequence similarity 126, member B (FAM126B) (natural protein, human, UniProt Q8IXS8 1-530, looked up)
chain: MLGTDRCVVEEWLSEFKALPDTQITSYAATLHRKKTLVPALYKVIQDSNNELLEPVCHQLFELYRSSEVRLKRFTLQFLPELMWVYLRLTVSRDRQSNGCIEALLLGIYNLEIADKDGNNKVLSFTIPSLSKPSIYHEPSTIGSMALTEGALCQHDLIRVVYSDLHPQRETFTAQNRFEVLSFLMLCYNSAIVYMPASSYQSLCRMGSRVCVSGFPRQHEKHWKELCGRIVLDPEFMVQLLTGVYYAMYNGQWDLGQEVLDDIIYRAQLELFSQPLLVANAMKNSLPFDAPDSTQEGQKVLKVEVTPTVPRISRTAITTASIRRHRWRREGAEGVNGGEESVNLNDADEGFSSGASLSSQPIGTKPSSSSQRGSLRKVATGRSAKDKETASAIKSSESPRDSVVRKQYVQQPTDLSVDSVELTPMKKHLSLPAGQVVPKINSLSLIRTASASSSKSFDYVNGSQASTSIGVGTEGGTNLAANNANRYSTVSLQEDRLGQAGEGKELLSPGAPLTKQSRSPSFNMQLISQV
notes: human FAM126B; source: bought: ProtoArray human protein Microarray v5.0 (Life Technologies), individually purified and arrayed
B5: RAD51 associated protein 1 (RAD51AP1) (natural protein, human, UniProt Q96B01-2 1-335, looked up)
chain: MVRPVRHKKPVNYSQFDHSDSDDDFVSATVPLNKKSRTAPKELKQDKPKPNLNNLRKEEIPVQEKTPKKRMALDDKLYQRDLEVALALSVKELPTVTTNVQNSQDKSIEKHGSSKIETMNKSPHISNCSVASDYLDLDKITVEDDVGGVQGKRKAASKAAAQQRKILLEGSDGDSANDTEPDFAPGEDSEDDSDFCESEDNDEDFSMRKSKVKEIKKKEVKVKSPVEKKEKKSKSKCNALVTSVDSAPAAVKSESQSLPKKVSLSSDTTRKPLEIRSPSAESKKPKWVPPAASGGSRSSSSPLVVVSVKSPNQSLRLGLSRLARVKPLHPNATST
notes: human RAD51 associated protein 1; source: bought: ProtoArray human protein Microarray v5.0 (Life Technologies), individually purified and arrayed
B6: Spliceosome-associated protein CWC15 homolog (HSPC148) (natural protein, human, UniProt Q9P013 1-229, looked up)
chain: MTTAARPTFEPARGGRGKGEGDLSQLSKQYSSRDLPSHTKIKYRQTTQDAPEEVRNRDFRRELEERERAAAREKNRDRPTREHTTSSSVSKKPRLDQIPAANLDADDPLTDEEDEDFEEESDDDDTAALLAELEKIKKERAEEQARKEQEQKAEEERIRMENILSGNPLLNLTGPSQPQANFKVKRRWDDDVVFKNCAKGVDDQKKDKRFVNDTLRSEFHKKFMEKYIK
notes: human spliceosome-associated protein CWC15 homolog; source: bought: ProtoArray human protein Microarray v5.0 (Life Technologies), individually purified and arrayed
B7: Potassium voltage-gated channel, shaker-related subfamily, beta member 1 (KCNAB1), transcript variant 1 (natural protein, human, UniProt Q14722-1 1-419, looked up)
chain: MLAARTGAAGSQISEENTKLRRQSGFSVAGKDKSPKKASENAKDSSLSPSGESQLRARQLALLREVEMNWYLKLCDLSSEHTTVCTTGMPHRNLGKSGLRVSCLGLGTWVTFGGQISDEVAERLMTIAYESGVNLFDTAEVYAAGKAEVILGSIIKKKGWRRSSLVITTKLYWGGKAETERGLSRKHIIEGLKGSLQRLQLEYVDVVFANRPDSNTPMEEIVRAMTHVINQGMAMYWGTSRWSAMEIMEAYSVARQFNMIPPVCEQAEYHLFQREKVEVQLPELYHKIGVGAMTWSPLACGIISGKYGNGVPESSRASLKCYQWLKERIVSEEGRKQQNKLKDLSPIAERLGCTLPQLAVAWCLRNEGVSSVLLGSSTPEQLIENLGAIQVLPKMTSHVVNEIDNILRNKPYSKKDYRS
notes: human KCNAB1, transcript variant 1; source: bought: ProtoArray human protein Microarray v5.0 (Life Technologies), individually purified and arrayed
B8: Family with sequence similarity 39, member B (FAM39B) (natural protein, human, UniProt Q6VEQ5 1-465, looked up)
chain: MTPVRMQHSLAGQTYAVPLIQPDLRREEAVQQMADALQYLQKVSGDIFSRISQQVEQSRSQVQAIGEKVSLAQAKIEKIKGSKKAIKVFSSAKYPAPERLQEYGSIFTGAQDPGLQRRPRHRIQSKHRPLDERALQEKLKDFPVCVSTKPEPEDDAEEGLGGLPSNISSVSSLLLFNTTENLYKKYVFLDPLAGAVTKTHVMLGAETEEKLFDAPLSISKREQLEQQVPENYFYVPDLGQVPEIDVPSYLPDLPGIANDLMYIADLGPGIAPSAPGTIPELPTFHTEVAEPLKVDLQDGVLTPPPPPPPPPPAPEVLASAPPLPPSTAAPVGQGARQDDSSSSASPSVQGAPREVVDPSGGRATLLESIRQAGGIGKAKLRSMKERKLEKKKQKEQEQVRATSQGGHLMSDLFNKLVMRRKGISGKGPGAGEGPGGAFARVSDSIPPLPPPQQPQAEEDEDDWES
notes: human FAM39B; source: bought: ProtoArray human protein Microarray v5.0 (Life Technologies), individually purified and arrayed
B9: Origin recognition complex, subunit 6 like (yeast) (ORC6L) (natural protein, human, UniProt Q9Y5N6 1-252, looked up)
chain: MGSELIGRLAPRLGLAEPDMLRKAEEYLRLSRVKCVGLSARTTETSSAVMCLDLAASWMKCPLDRAYLIKLSGLNKETYQSCLKSFECLLGLNSNIGIRDLAVQFSCIEAVNMASKILKSYESSLPQTQQVDLDLSRPLFTSAALLSACKILKLKVDKNKMVATSGVKKAIFDRLCKQLEKIGQQVDREPGDVATPPRKRKKIVVEAPAKEMEKVEEMPHKPQKDEDLTQDYEEWKRKILENAASAQKATAE
notes: human origin recognition complex subunit 6; source: bought: ProtoArray human protein Microarray v5.0 (Life Technologies), individually purified and arrayed

molecular target: T1, recombinant human soluble endoglin …; assay: peptide or protein array; ProtoArray human protein Microarray v5.0 (over 9000 human proteins arrayed) probed with recombinant sEng in two replicates; detection with anti-endoglin mAb SN6h and HRP secondary antibody; hits with Z-score >=2.0 in both arrays; conditions: both partners purified

Binding result, binds:
B1
B2
B3
B4
B5
B6
B7
B8
B9
